Assay results taken from the supplement of paper PMC7877785.
± gives the uncertainty stated by the source.

Assay: self-splicing fitness, log relative to wild type (ln ratio); higher = more splicing; Tetrahymena group I intron in knt gene, E. coli kanamycin selection, DiMSum; sequences stand for … in CUCUCU…GGAGGGAAAAGUUAUCAGGCAUGCACCUGGUAGCUAGUCUUUAAACCAAUAGAUUGCAUCGGUUUAAAAGGCAAGACCGUCAAAUUGCGGGAAAGGGGUCAACAGCCGUUCAGUACCAAGUCUCAGGGGAAACUUUGAGAUGGCCUUGCAAAGGGUAUGGUAAUAAGCUGACGGACAUGGUCCUAACCACGCAGCCAAGUCCUAAGUCAACAGAUCUUCUGUUGAUAUGGAUGCAGUUCACAGACUAAAUGUCGGUCGGGGAAGAUGUAUUCUUCUCAUAAGAUAUAGUCGGACCUCUCCUUAAUGGGAGCUAGCGGAUGAAGUGAUGCAACACUGGAGCCGCUGGGAACUAAUUUGUAUGCGAAAGUAUAUUGAUUAGUUUUGGAGUACUCGUGGUCG
Summary of the method: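 The eight P1ex-region nucleotides of an intron in the knt kanamycin-resistance gene on pET-22b(+) were all randomised and the library put into E. coli BL21(DE3). Six replicate transformations were grown overnight at 37°C or 30°C on LB agar with or without 25 μg/mL kanamycin, together with 100 μg/mL carbenicillin, 50 μM IPTG and 0.2% rhamnose. Colonies were pooled and amplicon-sequenced on an Illumina HiSeq 2500. Fitness from DiMSum is the error-weighted combination of wild-type-normalised replicate fold changes, kanamycin over none.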

| Sequence | self-splicing fitness (ln) (30 °C) | self-splicing fitness (ln) (37 °C) |
| --- | --- | --- |
| GGGGAGCAAUAUUACGUAAU | -4.07 ± 0.47 | -0.557 ± 0.19 |
| CCAGAGCAAUAUUACGCCAG | -3.07 ± 0.25 |  |
| AGUAAGCAAUAUUACGAGAU | -3.09 ± 0.15 | -0.575 ± 0.16 |
| UUCCAGCAAUAUUACGGGAG | -3.38 ± 0.16 | -1.77 ± 0.14 |
| CUCUAGCAAUAUUACGCAAG | -3.98 ± 0.27 | -1.95 ± 0.2 |
| ACUUAGCAAUAUUACGGUCC | -2.46 ± 0.12 | -1.33 ± 0.12 |
| CAUAAGCAAUAUUACGAACA | -3.64 ± 0.4 | -2.06 ± 0.38 |
| GUGUAGCAAUAUUACGGGAA | -2.77 ± 0.19 | -1.74 ± 0.2 |
| CCGUAGCAAUAUUACGUAUA | -2.74 ± 0.18 | -2.72 ± 0.27 |
| GGCAAGCAAUAUUACGCCCA | -1.95 ± 0.15 | -0.268 ± 0.12 |
| CACGAGCAAUAUUACGCUAC |  | -2.5 ± 0.37 |
| CGGUAGCAAUAUUACGGAGU | -3.33 ± 0.28 | -3.27 ± 0.35 |
| AUGCAGCAAUAUUACGGUAA | -0.979 ± 0.11 | -0.791 ± 0.1 |
| AACCAGCAAUAUUACGAAAC | -2.26 ± 0.14 | -0.477 ± 0.16 |
| GGCCAGCAAUAUUACGCCUU | -2.04 ± 0.12 | -0.815 ± 0.097 |
| GCAAAGCAAUAUUACGUCCG | -1.98 ± 0.25 | -1.74 ± 0.31 |
| AGCCAGCAAUAUUACGUAAA | -3.03 ± 0.12 | -1.55 ± 0.13 |
| UAUCAGCAAUAUUACGUUCA | -0.267 ± 0.11 | 0.345 ± 0.15 |
| AUCCAGCAAUAUUACGAUGC | -2.01 ± 0.15 | -0.963 ± 0.17 |
| AUAGAGCAAUAUUACGGCAG | -2.15 ± 0.19 | -1.37 ± 0.16 |
| CCGAAGCAAUAUUACGGGGA | -3.16 ± 0.19 | -2.96 ± 0.19 |
| GUGUAGCAAUAUUACGAGCU | -2.36 ± 0.17 | -0.678 ± 0.21 |
| AGUAAGCAAUAUUACGCAGU | -4.13 ± 0.17 | -2.98 ± 0.19 |
| UAGGAGCAAUAUUACGUACU | -2.72 ± 0.31 | -1.73 ± 0.32 |
| GUUUAGCAAUAUUACGCGUU | -1.75 ± 0.16 | -0.943 ± 0.2 |
| GGCCAGCAAUAUUACGACCA | -1.46 ± 0.1 | -0.797 ± 0.11 |
| AAAAAGCAAUAUUACGCCCC | -0.356 ± 0.25 | 0.308 ± 0.34 |

| Sequence | self-splicing fitness (ln) (30 °C) | self-splicing fitness (ln) (37 °C) |
| --- | --- | --- |
| CGUAAGCAAUAUUACGGUUA | -2.29 ± 0.12 | -1.72 ± 0.14 |
| UUCAAGCAAUAUUACGGAAU |  | -2.57 ± 0.23 |
| CAAUAGCAAUAUUACGUUCC | -2.6 ± 0.26 | -2.13 ± 0.35 |
| GGUUAGCAAUAUUACGGUUA | -1.23 ± 0.11 | -0.486 ± 0.082 |
| GGCCAGCAAUAUUACGCCAC | -4.58 ± 0.46 | -1.8 ± 0.49 |
| CGCCAGCAAUAUUACGUGUC | -3.34 ± 0.15 | -2.36 ± 0.14 |
| ACUAAGCAAUAUUACGACCU | -0.123 ± 0.081 | 0.342 ± 0.1 |
| CCUAAGCAAUAUUACGGAGC | -2.66 ± 0.35 |  |
| AUGUAGCAAUAUUACGUAAC | -2.96 ± 0.17 | -1.54 ± 0.16 |
| AAAGAGCAAUAUUACGGUUU | -2.16 ± 0.11 | -1.06 ± 0.12 |
| ACUGAGCAAUAUUACGCCAU | -2.4 ± 0.16 | -2.74 ± 0.27 |
| AUUUAGCAAUAUUACGUCAG | -3.7 ± 0.28 | -0.451 ± 0.2 |
| GAGUAGCAAUAUUACGGGCG | -1.89 ± 0.12 | -0.779 ± 0.12 |
| CGCAAGCAAUAUUACGGUAC | -4.99 ± 0.45 | -3.6 ± 0.16 |
| UACUAGCAAUAUUACGGGAU | -3.17 ± 0.17 | -1.43 ± 0.13 |
| UUACAGCAAUAUUACGUGUG | -1.72 ± 0.063 | 0.0664 ± 0.077 |
| CUGAAGCAAUAUUACGGGCC | -3.65 ± 0.32 |  |
| GUACAGCAAUAUUACGCGUG | -2 ± 0.061 | -1.42 ± 0.072 |
| AUACAGCAAUAUUACGAUUG | -3.14 ± 0.14 | -2.59 ± 0.2 |
| AGAUAGCAAUAUUACGAGGG | -3.73 ± 0.41 | -1.77 ± 0.33 |
| GUACAGCAAUAUUACGCGCG | -1.45 ± 0.19 | -0.578 ± 0.17 |
| UUUGAGCAAUAUUACGAGCA |  | -1.53 ± 0.43 |
| GCUAAGCAAUAUUACGUAGU | -4.17 ± 0.31 | -2.32 ± 0.19 |
| AUAGAGCAAUAUUACGGUGA | -1.49 ± 0.15 | -1.41 ± 0.19 |
| CUCCAGCAAUAUUACGUUUC | -3.65 ± 0.28 | -3.12 ± 0.3 |
| UCGCAGCAAUAUUACGUAAA | -1.69 ± 0.094 | -1.12 ± 0.12 |
| GCAAAGCAAUAUUACGAGAU | -3.64 ± 0.16 | -2.19 ± 0.12 |

| Sequence | self-splicing fitness (ln) (30 °C) | self-splicing fitness (ln) (37 °C) |
| --- | --- | --- |
| CCGGAGCAAUAUUACGACGC | -3.23 ± 0.22 | -2.22 ± 0.32 |
| GCGGAGCAAUAUUACGCGUG | -2.56 ± 0.29 | -1.85 ± 0.29 |
| CAUAAGCAAUAUUACGCUGC | -3.86 ± 0.21 | -3.23 ± 0.3 |
| UACGAGCAAUAUUACGCUAG |  | -1.7 ± 0.46 |
| UAGCAGCAAUAUUACGCGUU | -2.72 ± 0.1 | -1.24 ± 0.11 |
| UUGUAGCAAUAUUACGGCCA | -0.782 ± 0.2 | 0.581 ± 0.28 |
| UUGCAGCAAUAUUACGCUUU | -2.64 ± 0.12 | -2.11 ± 0.15 |
| UGUAAGCAAUAUUACGCACU | -0.554 ± 0.094 | -0.349 ± 0.12 |
| UGGCAGCAAUAUUACGUUAA | -1.16 ± 0.084 | -0.28 ± 0.084 |
| CCCUAGCAAUAUUACGUACA | -2.75 ± 0.19 | -2.87 ± 0.22 |
| CCUAAGCAAUAUUACGGCUG | -3.49 ± 0.21 | -2.47 ± 0.3 |
| UUUCAGCAAUAUUACGCCUA | -0.129 ± 0.066 | 0.414 ± 0.078 |
| CCAUAGCAAUAUUACGAUCU | -3.15 ± 0.34 | -2.96 ± 0.44 |
| UCUAAGCAAUAUUACGGCCU | -3.76 ± 0.41 |  |
| GUAAAGCAAUAUUACGUGGC | -3.42 ± 0.18 | -2.48 ± 0.2 |
| GCGUAGCAAUAUUACGAGGC |  | -1.53 ± 0.39 |
| CCCAAGCAAUAUUACGCUCU | -3.91 ± 0.26 | -2.16 ± 0.18 |
| AGCGAGCAAUAUUACGUCUU | -2.73 ± 0.16 | -2.08 ± 0.18 |
| AAGUAGCAAUAUUACGCCUC | -1.63 ± 0.27 |  |
| UGCAAGCAAUAUUACGAGAU | -3.16 ± 0.24 | -3.02 ± 0.35 |
| CCGGAGCAAUAUUACGCGCC | -1.89 ± 0.32 |  |
| CUUAAGCAAUAUUACGGAAG | -2.03 ± 0.17 | -0.419 ± 0.14 |
| GCCCAGCAAUAUUACGAGCC | -3.1 ± 0.24 | -0.756 ± 0.15 |
| GCCUAGCAAUAUUACGAAAG | -4.21 ± 0.24 | -1.07 ± 0.18 |
| CAAGAGCAAUAUUACGAUCU |  | -1.79 ± 0.31 |
